Measured values as given in paper PMC11825483.

Assay: hepatic Ceacam1 mRNA and protein levels
Conditions: glycan changed form; control: Slc35c1 flox/flox mice

B1: CEACAM1 (Ceacam1): Slc35c1 cKO (protein)
parent chain: MELASAHLHKGQVPWGGLLLTASLLASWSPATTAEVTIEAVPPQVAEDNNVLLLVHNLPLALGAFAWYKGNTTAIDKEIARFVPNSNMNFTGQAYSGREIIYSNGSLLFQMITMKDMGVYTLDMTDENYRRTQATVRFHVHQPVTQPFLQVTNTTVKELDSVTLTCLSNDIGANIQWLFNSQSLQLTERMTLSQNNSILRIDPIKREDAGEYQCEISNPVSVRRSNSIKLDIIFDPTQGGLSDGAIAGIVIGVVAGVALIAGLAYFLYSRKSGGGSDQRDLTEHKPSTSNHNLAPSDNSPNKVDDVAYTVLNFNSQQPNRPTSAPSSPRATETVYSEVKKK
expression_or_secretion: no change
